These results are taken from PMC11316719, “Unveiling the importance of the C-terminus in the sugar acid dehydratase of the IlvD/EDD superfamily” (Applied Microbiology and Biotechnology, 2024).

In data set [1] the target is T1, RlArDHT (L-arabinonate dehydratase from Rhizobium leguminosarum bv. trifolii) (Rhizobium leguminosarum, UniProt B5ZZ34, H579L).
T1 construct: gene araD; full length with N-terminal Strep-tag II (WSHPQFEK), codon-optimized, pBAT4, E. coli BL21(DE3); 579 residues without tag; [2Fe-2S] and Mg2+; homotetramer
The data set can be described thus: X-ray crystal structure, […] Å, co-crystallized. Format: binding. The settings on record: product analog; active site of chain D, coordinated to Mg2+; [2Fe-2S] present; pH 8.5, 20 °C.

Substrate in data set [2]: C[C@@H](O)[C@H](O)[C@H](O)[C@@H](O)C(=O)O
Description: purified protein. The settings on record: pH 8.0, 30 °C, 50 mM Tris-HCl, 10 mM MgCl2. It is filed as biochemical, Rhizobium leguminosarum.

Substrate in data set [3]: O=C(O)[C@H](O)[C@@H](O)[C@H](O)[C@H](O)CO
Description: purified protein. The settings on record: pH 8.0, 30 °C, 50 mM Tris-HCl, 10 mM MgCl2. It is filed as biochemical, Rhizobium leguminosarum.

Substrate in data set [4]: O=C(O)[C@H](O)[C@@H](O)[C@@H](O)CO
The data set can be described thus: purified protein. The settings on record: pH 8.0, 30 °C, 50 mM Tris-HCl, 10 mM MgCl2. Format: biochemical, Rhizobium leguminosarum.

Substrate in data set [5]: O=C(O)[C@H](O)[C@@H](O)[C@@H](O)[C@H](O)CO
The data set can be described thus: purified protein. The settings on record: pH 8.0, 30 °C, 50 mM Tris-HCl, 10 mM MgCl2. It is filed as biochemical, Rhizobium leguminosarum.

Substrate in data set [6]: O=C(O)[C@H](O)[C@@H](O)[C@H](O)CO
The data set can be described thus: purified protein. Format: biochemical, Rhizobium leguminosarum. The settings on record: pH 8.0, 30 °C, 50 mM Tris-HCl, 10 mM MgCl2.

Data set [7] deals with the molecule itself. Description: crystal structure; H579L co-crystallised with 2-oxobutyrate, hanging-drop vapor diffusion at 20 °C; 14% (w/v) PEG 10000, 200 mM ammonium acetate, 100 mM Tris pH 8.5; molecular replacement with PDB 5J84.

Positions count from the first letter of the chain named. Numbers in names are those of the source.

T1 sequence (B5ZZ34 whole entry H579L): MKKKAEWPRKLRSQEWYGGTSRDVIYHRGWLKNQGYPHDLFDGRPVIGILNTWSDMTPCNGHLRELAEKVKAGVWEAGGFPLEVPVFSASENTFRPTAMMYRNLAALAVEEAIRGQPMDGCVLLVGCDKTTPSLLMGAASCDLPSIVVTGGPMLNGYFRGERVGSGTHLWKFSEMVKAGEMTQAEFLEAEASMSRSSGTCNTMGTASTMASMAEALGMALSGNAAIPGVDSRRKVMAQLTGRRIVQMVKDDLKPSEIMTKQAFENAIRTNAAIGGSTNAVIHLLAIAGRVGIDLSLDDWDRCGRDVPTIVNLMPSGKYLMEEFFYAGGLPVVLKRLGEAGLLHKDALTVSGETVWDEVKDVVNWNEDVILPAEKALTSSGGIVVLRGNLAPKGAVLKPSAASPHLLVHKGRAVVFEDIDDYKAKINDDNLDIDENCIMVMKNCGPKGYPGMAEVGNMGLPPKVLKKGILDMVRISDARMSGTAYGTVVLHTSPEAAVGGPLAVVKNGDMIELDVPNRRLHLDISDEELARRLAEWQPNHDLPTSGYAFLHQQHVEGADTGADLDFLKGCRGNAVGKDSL

Turning to `CCC(=O)C(=O)O` [2-oxobutyrate], the “X-ray crystal structure, 2.4 Å, co-crystallized” value in data set [1] is on record as 2-Oxobutyrate was refined inside the substrate-binding cavity in chain D of the H579L variant.

B1: RlArDHT (L-arabinonate dehydratase from Rhizobium leguminosarum bv. trifolii) (Rhizobium leguminosarum bv. trifolii WSM2304) (protein)
chain: MKKKAEWPRKLRSQEWYGGTSRDVIYHRGWLKNQGYPHDLFDGRPVIGILNTWSDMTPCNGHLRELAEKVKAGVWEAGGFPLEVPVFSASENTFRPTAMMYRNLAALAVEEAIRGQPMDGCVLLVGCDKTTPSLLMGAASCDLPSIVVTGGPMLNGYFRGERVGSGTHLWKFSEMVKAGEMTQAEFLEAEASMSRSSGTCNTMGTASTMASMAEALGMALSGNAAIPGVDSRRKVMAQLTGRRIVQMVKDDLKPSEIMTKQAFENAIRTNAAIGGSTNAVIHLLAIAGRVGIDLSLDDWDRCGRDVPTIVNLMPSGKYLMEEFFYAGGLPVVLKRLGEAGLLHKDALTVSGETVWDEVKDVVNWNEDVILPAEKALTSSGGIVVLRGNLAPKGAVLKPSAASPHLLVHKGRAVVFEDIDDYKAKINDDNLDIDENCIMVMKNCGPKGYPGMAEVGNMGLPPKVLKKGILDMVRISDARMSGTAYGTVVLHTSPEAAVGGPLAVVKNGDMIELDVPNRRLHLDISDEELARRLAEWQPNHDLPTSGYAFLHQQHVEGADTGADLDFLKGCRGNAVGKDSH
notes: full length with N-terminal Strep-tag II (WSHPQFEK), codon-optimized, pBAT4, E. coli BL21(DE3); 579 residues without tag; [2Fe-2S] and Mg2+; homotetramer
One may read the Km as the substrate concentration at which the rate is half of its maximum. The term kcat denotes the number of substrate molecules converted per active site and unit of time at saturation. A word on the kcat/Km: it is the turnover number divided by the Michaelis constant. For the molecule B1, the Km stood at 240 ± 70 µM in the data set “purified protein [2]”; 5700 ± 1500 µM in the data set “purified protein [3]”; 1200 ± 200 µM in the data set “purified protein [4]”; 740 ± 150 µM in “purified protein [5]”; 1300 ± 300 µM in the data set “purified protein [6]”. Besides, the kcat in “purified protein [2]” is 17.5 ± 1 s⁻¹; in “purified protein [3]”, 6.5 ± 0.833 s⁻¹; in the data set “purified protein [4]”, 11.3 ± 0.5 s⁻¹; in the data set “purified protein [5]”, 11.5 ± 0.5 s⁻¹; in “purified protein [6]”, 0.413 ± 0.0217 s⁻¹. For the same molecule, the kcat/Km in “purified protein [2]” came out at 73300 ± 18300 M⁻¹ s⁻¹; in “purified protein [3]” it was 1130 ± 150 M⁻¹ s⁻¹; in “purified protein [4]” it was 9500 ± 1170 M⁻¹ s⁻¹; in the data set “purified protein [5]” it was 15500 ± 2330 M⁻¹ s⁻¹; in “purified protein [6]”, 317 ± 66.7 M⁻¹ s⁻¹.

B2: RlArDHT (L-arabinonate dehydratase from Rhizobium leguminosarum bv. trifolii) (Rhizobium leguminosarum bv. trifolii WSM2304; H579L) (protein)
chain: B1 chain with H579L
notes: as for B1
Take B2: the Km was determined as 820 ± 60 µM in the data set “purified protein [2]”; 5400 ± 900 µM in “purified protein [3]”; 1000 ± 200 µM in “purified protein [4]”; 900 ± 150 µM in “purified protein [5]”; 1200 ± 200 µM in the data set “purified protein [6]”. The kcat was determined as 21.5 ± 0.5 s⁻¹ in the data set “purified protein [2]”; 0.667 ± 0.05 s⁻¹ in “purified protein [3]”; 2 ± 0.0833 s⁻¹ in the data set “purified protein [4]”; 1.48 ± 0.0667 s⁻¹ in the data set “purified protein [5]”; 0.107 ± 0.00333 s⁻¹ in the data set “purified protein [6]”. Moreover, the kcat/Km is 26200 ± 1330 M⁻¹ s⁻¹ in “purified protein [2]”; 125 ± 11.7 M⁻¹ s⁻¹ in “purified protein [3]”; 2000 ± 333 M⁻¹ s⁻¹ in “purified protein [4]”; 1580 ± 183 M⁻¹ s⁻¹ in the data set “purified protein [5]”; 88.3 ± 11.7 M⁻¹ s⁻¹ in “purified protein [6]”.

B3: L-arabinonate dehydratase from Rhizobium leguminosarum bv. trifolii, variant H579L (enzyme, UniProt B5ZZ34 1-579, looked up)
chain: B1 chain with H579L
modifications: KCX129 (6N-carboxylysine)
notes: L-arabinonate dehydratase (RlArDHT) from Rhizobium leguminosarum bv. trifolii, gene araD, GenBank KT260159, codon-optimised synthetic gene; His579 is the last C-terminal residue, changed to Leu; Holds a [2Fe-2S] cluster and Mg2+ in each chain; co-crystallised with 2-oxobutyrate (seen in chain D only); The introduction calls the same variant H588L, which may count the N-terminal tag residues; also …
One may read the stoichiometry N as a count of units in the complex or per binding partner. Turning to B3, in data set [7], the “stoichiometry N” value was 4.
